# ± gives the uncertainty stated by the source.
# Experiment: amyloid nucleation score (Sup35N fusion, yeast selection) (log enrichment); library NNK3; higher = more nucleation; inactive = no reads after selection
# Procedure, shortened: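 Nucleation score is defined as the DiMSum log enrichment of output over input reads, with centring on the mode score of non-aggregating sequences. A minimum of 100 input reads was required for each sequence. Reads came from Illumina sequencing of plasmid inserts from psi-negative yeast expressing Sup35N fused to peptides of 20 random codons, induced with 100 μM copper sulfate for 24 hours and grown 7 days at 30°C on medium lacking adenine and uracil.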
row,Substance,amyloid nucleation score
1,KENFASVCCGCYPMQPPGIM,inactive
2,RLTWESTMYVKIVGMSYAFG,-0.241 ± 0.36
3,HLVYWVIHDLYMTI,0.303 ± 0.33
4,SAKIL,0.118 ± 0.23
5,NERREANGWSYRDLHGSGFE,inactive
6,KYYYVLGMQMYRHLYWTACV,inactive
7,YNGLGMIVPMFLVHPLK,inactive
8,VGNFYVSNVAFLWVK,inactive
9,YTDIVSAIEEVF,inactive
10,AYKNRSFFLVVVITYNRVMP,inactive
11,GIFTLFYYVMMKLIFDFFTV,inactive
12,LSGELCSW,inactive
13,VTVCSFLLVSRNRNRLRRIY,inactive
14,YNDKGTV,inactive
15,YWGKRSF,inactive
16,SYFVALMSLRYMESTYWR,inactive
17,KCSFTVNYRRRYSLYC,inactive
18,PLKCGFGPACPDFYIVEGGK,inactive
19,DYIRRWLVYAYDKVFCRLTV,inactive
20,DFWLHCGDK,inactive
21,VGSNTVM,-0.572 ± 0.84

row,Substance,amyloid nucleation score
1,EGSSSLYCSELRFV,inactive
2,MLRLKYLIELTRDFFGWFLF,inactive
3,RFISLVRNYFFTCCRRRSMF,inactive
4,RHVVGCSYNVIGCFYVVLRI,1.84 ± 0.083
5,HWCVPL,inactive
6,LFSEFQ,0.574 ± 0.32
7,NNRCNKFPGYTL,inactive
8,LLLRFFRYLGYKLMRTIE,inactive
9,FQESVIWKVYRNNNYRSLTV,inactive
10,IGRMKRSIGRCDPVWWNWVQ,inactive
11,FYHDMIWTILLDYTRRFHKL,inactive
12,KFRKTRSKR,inactive
13,CMLSMFSCCCFDSPRRYCH,2.36 ± 0.051
14,FEMPLMWYCGGFYSSPLLCK,inactive
15,DRGFGYGSITKGINA,inactive
16,YLFHLLSDRRCEDMCVVGIK,inactive
17,YRCSRNVENYGPSKRGYYTE,inactive
18,MLLFACQRLQLVALLGARML,inactive
19,LAASLSGIYCPSLAWRGLKE,inactive
20,KAARTSQGNARCVYVKGVSN,inactive
21,SCKVTKHGYVKEDFIGLCSY,inactive

row,Substance,amyloid nucleation score
1,GKIAVS,inactive
2,RNLSKIRMPMVVNNTEY,inactive
3,SGFFMMVYRR,-0.364 ± 0.75
4,KAPNPI,inactive
5,RIRFKRGVPSVVAHVVLR,inactive
6,EFIALSVFLLNFVSCLWSNV,inactive
7,GQLYVMSRSDQARDSFELDA,inactive
8,NFVPVYSLSRRAVLGHTGWC,inactive
9,LHYICQKLGGMWMVLVCRAC,inactive
10,VEFSVFGERNVIYGVLSWRS,1.12 ± 0.12
11,MCVFNNGVGLPDVGVNLAYN,inactive
12,CFMTS,inactive
13,RGYRAK,1.34 ± 0.097
14,ANELERYYVMCFW,1.64 ± 0.099
15,EGPNTVNCPTAS,inactive
16,FILSVWLYTS,inactive
17,YYWMAWRTLGAVRAG,-0.458 ± 0.5
18,GISRLFVGMKKAVTWSAKER,inactive
19,DWRQVYAYENSLWTVFSVWD,inactive
20,LFLRPNANRYVH,inactive
21,FHTFSVCVGRGTMYYRALEE,0.277 ± 0.23

row,Substance,amyloid nucleation score
1,KCAVDTV,inactive
2,NHKEWWFTVYLTSGVVCDLG,inactive
3,VCMLVMYESRLNVEKAVLLG,-0.083 ± 0.64
4,VWPQNLNPICKSNLTRCVGC,inactive
5,CHSFIMIYVVMMDIS,0.103 ± 0.55
6,SYDVKSSTLW,inactive
7,NFCFLCSWCIL,2.56 ± 0.052
8,IVFWRSFHKNA,inactive
9,SIGTKLASCLYLKR,inactive
10,FACRVGGEHGGV,inactive
11,NISYKW,0.377 ± 0.34
12,LSFVP,inactive
13,RPPMDEICSNFRSRTLNQSK,inactive
14,YRFGDILSVRSLQNFT,inactive
15,RGIKWWILDFWVDMHTCMFK,inactive
16,HTWTWDIII,0.065 ± 0.23
17,CVNKFLSVPSIDSEDFCYLV,inactive
18,RLVPFTWGHIPG,inactive
